Data reported in US20050152926A1.

How the values were obtained:
[1] = target: HLA A2 on RMA-S/A2 cells (human); experiment: BB7.2 staining of RMA-S/A2 cells without peptide (peptide-free control); FIG 1(i)
[2] = target: HLA A2 on RMA-S/A2 cells (human); experiment: BB7.2 staining of RMA-S/A2 cells without peptide (peptide-free control); FIG 3(i)
[3] = target: HLA A2 on RMA-S/A2 cells (human); experiment: BB7.2 staining of RMA-S/A2 cells without peptide (peptide-free control); FIG 2(i)

Mean 2 [1]: 380
Δ Mean [1]: 193
Mean 2 [2]: 282
Δ Mean [2]: 151
Mean 2 [3]: 311
Δ Mean [3]: 154
Substance: anti-A2 specific BB7.2 monoclonal antibody
